# Biological target: L. monocytogenes AgrC (Listeria monocytogenes (EGD-e))
# Experiment: cell-based or functional assay
Substance,"EC50 (agr-GFP reporter, ΔagrD strain) [nM]","Max Activation Observed (agr-GFP reporter, ΔagrD strain) [%]","Max Inhibition Observed (agr-GFP reporter, wild-type strain) [%]","IC50 (agr-GFP reporter, wild-type strain) [nM]"
"L. monocytogenes AIP, A-(C-F-M-F-V) (peptide)",29.7,114,,
AIP A1V (peptide),7.67,109,1.63,
AIP C2dDap (peptide),,14.3,19.3,
AIP C2Dap (peptide),342,92.9,5.32,
AIP F5H (peptide),,7.13,2.19,
AIP F3W (peptide),414,60.6,27.1,2180
AIP F3L (peptide),693,37.6,33.4,3600
AIP C2dC/M4dM (peptide),24.1,35.7,64.8,242
AIP A1K/C2dC/M4dM (peptide),,8.1,88.6,1770
AIP F5Y (peptide),5620,44.4,6.61,
AIP F3Y (peptide),518,47.4,33.4,3460
AIP A1K/M4dM (peptide),4.18,74.1,20.2,
AIP A1P (peptide),29,76.8,23.7,611
AIP M4dA (peptide),455,82,9.54,
AIP F5L (peptide),2060,64.8,8.97,
AIP F5W (peptide),1130,85.8,8.43,
AIP F3H (peptide),,12.4,24.9,
AIP A1T (peptide),35.2,88.1,11.7,420

# Biological target: L. monocytogenes AgrC (Listeria monocytogenes (EGD-e))
# Experiment: cell-based or functional assay
# Remark: another data set of the same source
Substance,"Max Activation (agr-GFP reporter, ΔagrD strain) [%]","Max Inhibition (agr-GFP reporter, wild-type strain) [%]","EC50 (agr-GFP reporter, ΔagrD strain) [nM]","Max Activation Observed (agr-GFP reporter, ΔagrD strain) [%]","IC50 (agr-GFP reporter, wild-type strain) [nM]","Max Inhibition Observed (agr-GFP reporter, wild-type strain) [%]"
L. grayi AIP (peptide),10.7,0.42,,,,
"L. monocytogenes AIP, A-(C-F-M-F-V) (peptide)",114,2.66,29.6,,,
AIP V6dV (peptide),,,883,72.9,,
AIP C2dC (peptide),,,106,41,3970,48.4
AIP M4dM (peptide),,,10.2,111,,3.99
AIP F3dF (peptide),,,,6.63,,14.7
AIP F5A (peptide),,,,6.37,,
L. weihenstephanensis AIP (peptide),11.2,0,,,,
AIP A1dA (peptide),,,96.9,58.8,,15.2
Lm AIP F3S (peptide),16.1,16.3,,,,
L. newyorkensis AIP (peptide),23.6,0.96,,,,
AIP V6A (peptide),69,15,241,69,,15
AIP F3A (peptide),,,,9.72,,3.65
AIP M4A (peptide),,,1980,53.5,,7.85
AIP F5dF (peptide),,,2180,72.3,,2.71
L. kieliensis AIP (peptide),10.4,0,,,,
L. grandensis tr AIP (peptide),10.1,0,,,,
